The record followed here is US20160129078A1, “Rhomboid Proteins and Uses Thereof” (Queen's University at Kingston, priority 2014, published 2016).

In test [1] the test system is yeast. Put plainly: Sensitization of yeast to fungicidal agents AmB and Nys. Format: cell-based, Saccharomyces cerevisiae. As to conditions: for yeast cell survival, variant added alone: 10 ug protein alone in elution buffer, no fungicide; for yeast survival, fungicidal agents together with variant protein: 10 ug protein with sub-lethal AmB and/or Nys. The method, then:
Experiments were conducted to assess the ability of the Arabidopsis At1g74130 proteins or variants to sensitize yeast to the antifungal agents Amphotericin B (AmB) and Nystatin (Nys). Overall, these assays were conducted in a manner similar to that designed for bacteria (Example 9). In addition to the components mixed with the added proteins or variants, the antifungal AmB was also utilized as part of the delivery system. The AmB drug contains small quantities of the detergent deoxycholate, which may also assist in the delivery of proteins into the cell, as well as function as a pore forming agent itself. […] The effective co-delivery sub-lethal concentrations of the two antifungal agents or protein had little or no effect when provided individually. FIGS. 17 and 18 show results of the yeast sensitivity assays for AmB and Nys. […] In FIG. 17, the “Yeast Control” bars represent yeast cells given mock treatments with culture media (YPD) alone, YPD plus 1% AmB, YPD plus 0.5% Nys, and YPD plus 1% AmB and 0.5% Nys, respectively. The “BSA Control” bars represent another set of mock treatments with yeast cells. This set utilized the same set-up as the Yeast Control set but with added control bovine serum albumin proteins (BSA) (dissolved in the elution buffer, the same buffer used for the purification of the recombinant At1g74130 rhomboid proteins or variants). These assays represent another variation of negative controls for rhomboid protein. The “Elution Control” bars represent yeast cells mock treated using the same set-up as in the Yeast Control set but with added elution buffer alone. This variation of control assays was designed to assess for potential toxic impacts when combining elution buffer and the listed drugs, as well any effects originating from components of the elution buffer itself. The composition of the elution buffer is provided above in Example 5. With the exception of Nys, these treatments represent the first step and occur for 45 minutes before the second step when exposure to fungicides takes place. Within each set of bars, where applicable, the second 15-minute step treatment occurred with a sub-lethal dose of Nys. After a total of one hour, the treated yeast cells were plated on non-selective YPD agar plates. Plates were grown 2-3 days at 27-30° C. and assessed for surviving cell numbers (measuring cell death). Images were also taken to document cell and colony growth characteristics.
In the experimental assays, the sensitizing properties of At1g74130 or variants (sensitizing variants) were tested by adding 10 ug protein (At1g74130 or variants in elution buffer) to yeast cells (300-500 cells). To reiterate in all cases, the components were added to cultures and mixed for one hour, where Nys was added and incubated for the last 15 minutes of the treatment. Pre-treatment was designed to permit AmB and At1g74130 proteins to establish and work prior to adding Nys. After the one hour incubation, 500 cells were plated on non-selective YPD agar media and grown for 48 hours at 30′C.
The sub-lethal levels of fungicides to use in these assays were determined using dosage experiments. These assays were conducted on yeast cells without added rhomboid proteins or variants. The dosages of AmB tested ranged from 0 to 5% (v/v). […] Likewise, the Nys level was determined using a range of 0.5 to 2.5%. Yeast cells were treated for one hour with fungicides in a total volume of 400 μl YPD media before plating.
Since both the AmB buffer contained small quantities of detergent (deoxycholate being the main one), an experiment was done in which different amounts (1% and 10%) of deoxycholate were added to yeast cells to ascertain any effects. Adding deoxycholate had little effect on yeast.
This set of yeast assays was conducted in the same manner described above (Example 13) and employed the same controls and combinations. […]

Test [2] concerns Pseudomonas aeruginosa. Put plainly: Impairment of lipase secretion and growth on minimal media-olive oil plates. It counts as cell-based. As to conditions: for growth on minimal media-olive oil agar plates: 10 ug protein, with or without 5% DMSO, olive oil as only carbon source. The text has this: Experiments were thus conducted to assess the ability of At1g74130 proteins or variants to impair the protein secretion process of Pseudomonas aeruginosa, a gram-negative bacterium known to be pathogenic and producers of biofilms. Any impact on the protein secretion mechanism may alter pathogenicity, growth, survival, biofilm production, and sensitivity to antimicrobial drugs. The design of the Pseudomonas assays was similar to that used for bacteria in the above examples, results, and figures. Treated Pseudomonas cells were plated onto minimal media supplemented with olive oil as the only external carbon source. The minimal media-olive oil plates consisted of the following: 50 mM MOPS, pH 7.5; 40 mM K2HPO4; 25 mM NaH2PO4; 7.5 mM (NH4)2SO4; 0.4 mM MgSO4; 0.5% (v/v) olive oil; 40 ug/ml neutral red; 20 ul trace elements (Mn, Co, Zn, Cu, and Mo); and 1.5% agar. Pseudomonas cells need to express and secrete lipases in order to break down the olive oil and allow the acquisition of carbon from the media. Cells that are impaired with respect to protein secretion will not be able to break down the olive oil for acquisition and permit subsequent growth.
Control assays were conducted on cells without added At1g74130 or variants (sensitizer variants) to determine the delivery system to use. Control assays were also conducted to determine if the 5% (v/v) DMSO delivery system used for E. coli exerted any effect. Pseudomonas cells were mock treated with Luria Broth (LB) media or 5% (v/v) DMSO for 45-90 minutes prior to plating on minimal media supplemented with olive oil as the sole external carbon source. Total volumes of 200 μl were used in these assays. The plates were allowed to grow overnight to assess the level of growth or colony formation.
In the experimental assays, the utility of At1g74130 or variants in the Pseudomonas was tested by adding 10 ug protein (At1g74130 or variants) to cells (600-800 cells) incubated for 45 minutes at 37° C., shaken, and followed by another 45 minute period at 37° C. […]

In test [3] the test system is bacteria. Put plainly: Sensitization of bacteria to tetracycline by exogenous rhomboid protein. It counts as cell-based, Escherichia coli. Conditions: tetracycline 15 ug/ml. The method, then:
Experiments were conducted to assess the ability and the utility of At1g74130 protein variants to sensitize bacteria to another antibiotic, tetracycline. In bacteria, tolerance or resistance to tetracycline is facilitated by a mechanism different from the ampicillin resistance assayed in Example 9. Unlike the breakdown of ampicillin outside the bacterial cells by secreted ampicilliase, tetracycline resistance in bacteria is based largely on the continual and effective pumping of tetracycline out of the cell by proteinaceous membrane pumps. To assess the utility of the At1g74130 for sensitizing bacteria to tetracycline, these bacterial assays were conducted in the same manner described in Example 9. The same controls and combinations were used. The final treatment level of tetracycline used in place of the ampicillin treatment was 15 ug/ml.
Experiments were conducted to assess the ability and the utility of a human rhomboid type or variant to sensitize bacteria to tetracycline. These bacterial assays were conducted in the same manner described above for the other rhomboid variants and in Example 9. The same controls and combinations were used. The At1g74130 L was the control for UBAC2 in this set of assays. The previously observed behaviours and responses were not observed for UBAC2 in this setting with the antibiotic tetracycline (FIG. 16).

B1: At1g74130 M: 7/8 M-form splice variant of Arabidopsis At1g74130 rhomboid protein (protein, listed as Arabidopsis thaliana)
chain: MHAIFCRRVAVGCSSPQLTKLVTKQASQSRHSLSHLLPFDLSSRFVPPYVVSRSARVHGFFAGKLGNTNLKLKFGNVMESRAGFFSSELPSHGFESGGFTGFQKRGWKSWINGANGVVFGLVIANAAVFTMWRVLGKDNMWMVKNFMLSRYSFMTGRIHTLITSGFSHVGATHIILNMMGLCYFGARIARSFGPRYLLKLYFAGALGGSVFFLSSHALSVISLKGQRVVPKDQLKVPIGKLGANGPVYAITLLDMLLYPKVTTYFGLMLRVPVFAGIYSLGLNIIKMLEVCMMGKTTIP
As to B1, in test [1], the “yeast cell survival, variant added alone” value was “no effect” and the “yeast survival, fungicidal agents together with variant protein” value was “dramatically reduced yeast survival”. Moreover, in test [2], the “growth on minimal media-olive oil agar plates” value is on record as “reduced”. The lipase secretion result in test [2] (assay with elution buffer and variant) was “moderate impairment of lipase secretion”. Also, the “sensitization of bacteria to tetracycline” value in test [3] is reported as “increased the sensitivity”.

B2: At1g74130 S: 6/7 S-form splice variant of Arabidopsis At1g74130 rhomboid protein (protein, listed as Arabidopsis thaliana)
chain: MHAIFCRRVAVGCSSPQLTKLVTKQASQSRHSLSHLLPFDLSSRFVPPYVVSRSARVHGFFAGKLGNTNLKLKFGNVMESRAGFFSSELPSHGFESGGFTGFQKRGWKSWINGANGVVFGLVIANAAVFTMWRVLGKDNMWMVKNFMLSRYSFMTGRIHTLITSGFSHVGATHIILNMMGLCYFGARIARSFGPRYLLKLYFAGALGGSVFFLSSHALSVISLKGQRVVPKDQLKVPIGKLGANGPVYAITLLDMLLYPKVTTYFGLMLRVPVFAVRESIA
As for B2, in test [1], the “yeast cell survival, variant added alone” value is on record as “no effect” and the “yeast survival, fungicidal agents together with variant protein” value is listed as “dramatically reduced yeast survival”. In addition, the “growth on minimal media-olive oil agar plates” value in test [2] is on record as “most potent impact”. Further, the “sensitization of bacteria to tetracycline” value in test [3] was “no activity”.
